Data on one substance can be found in article doi:10.1101/2021.06.02.446795.

The experiment deals with HMPV nucleoprotein N (strain CAN97-83), full-length, N-RNA rings (human metapneumovirus (strain CAN97-83)). Description: SEC.

On to “HMPV nucleoprotein N (strain CAN97-83), full-length, N-RNA rings (natural protein)”, for which the stoichiometry N (usually a count of units in the complex or per binding partner) worked out at 10.
